From patent publication US11248023B2 (NEURACLE SCIENCE CO., LTD., priority 2015, dated 2022)
Square brackets hold non-standard residues; d marks the D form. Ends that are not written are not given here. Peptide text beside a SMILES is read from it. * marks the point of attachment. Fmoc = O=C(OCC1c2ccccc2-c2ccccc21)*

Key:
[1] = molecular target: T1, GALR2 (Homo sapiens, UniProt O43603); test: SRE-luc assay in HEK293-Gqi cells expressing GALR2; type: cell-based; conditions: for potency toward GALR2: SRE-luc, HEK293-Gqi cells, compared with spexin
T1 construct: expressed in transfected cells
T1 sequence (O43603 1-387): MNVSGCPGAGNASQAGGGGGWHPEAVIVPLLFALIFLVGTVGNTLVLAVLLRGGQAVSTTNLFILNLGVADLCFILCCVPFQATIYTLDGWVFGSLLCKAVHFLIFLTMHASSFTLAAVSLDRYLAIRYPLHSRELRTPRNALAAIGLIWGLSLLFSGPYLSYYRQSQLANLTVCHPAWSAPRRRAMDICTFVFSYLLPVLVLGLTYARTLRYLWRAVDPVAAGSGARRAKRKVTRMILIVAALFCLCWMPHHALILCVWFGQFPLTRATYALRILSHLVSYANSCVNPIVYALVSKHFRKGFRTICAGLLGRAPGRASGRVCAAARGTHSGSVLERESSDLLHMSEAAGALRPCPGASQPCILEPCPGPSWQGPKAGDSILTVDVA
Source text: (§1) The HEK293-Gqi stable cell line is a cell line in which the C-terminus of Gq is substituted with 3 amino acids of G to convert the signals of G to Gq signaling pathways. […] GALR subtypes 1 and 3 induce inhibitory G-coupled signaling, while GALR subtype 2 triggers stimulatory Gq-coupled signaling. This difference explains the use of the HEK293-Gqi stable cell line in which the C-terminus of Gq is substituted with 3 amino acids of G to convert the signals of Gi to Gq signaling pathways.
(§2) GALR subtypes 1 and 3 induce inhibitory G-coupled signaling, while GALR subtype 2 triggers stimulatory Gq-coupled signaling. This difference explains the use of the HEK293-Gqi stable cell line in which the C-terminus of Gq is substituted with 3 amino acids of G to convert the signals of G to Gq signaling pathways. The activities of the receptors were measured using an SRE-luc assay system designed to express luciferase (luc) by serum responsive element (SRE) promoters. Light caused by a reaction between expressed luciferase and luciferin as a substrate was detected using a luminometer so that receptor subtype-specific or ligand-specific cellular activities were observed. One day after HEK293-Gqi cells were seeded in 48-well plates at a density of 2×10^4 cells/well, plasmid DNA and SRE-luc plasmid DNA, which encode GALR2 and GALR3, respectively, were mixed in a ratio of 1:1 (75 ng+75 ng)/well, and treated with Effectene reagent (2 μl/well). After 3 h, media were replaced with DMEM media supplemented with 10% FBS. After 24 h, the DMEM media were replaced with FBS-free DMEM media. After 16 h, each constructed spexin-based mutant peptide was further incubated at 37° C. for 6 h. After this stage was finished, cells were washed with PBS and lysed by the addition of 100 μl of lysis buffer (0.1% triton X-100, 0.2M Tris, pH 8.0) at room temperature for 20 min. The luciferase activity was determined using a synergy 2 Multi-mode microplate reader (BioTek, Winooski, Vt., USA) with automatic injection of a luciferin solution (0.5 M MgCl2, 0.1 M ATP, 0.05 M D-luciferin, 1 M KH2PO4, pH 7.8).

[2] = system: POMC neurons; test: Signaling, POMC expression and α-MSH in cultured POMC neurons (Western blotting, mRNA); type: cell-based; conditions: Fmoc sextuple mutant 1 μM, insulin 10 nM
Experimental: An increase in the potency of appetite-regulating brain neurons by administration of the GALR2 agonist was determined by immunohistochemistry (IHC). […] POMC neurons known to regulate appetite in the arcuate nucleus were cultured in vitro, treated with the Fmoc sextuple mutant (1 μM) and 10 nM insulin, washed with PBS, and lysed by the addition of 100 μl of lysis buffer (0.1% triton X-100, 0.2M Tris, pH 8.0) at room temperature for 20 min.
Proteins were extracted from cells and analyzed by Western blotting. […] POMC neurons were treated the GALR2 agonist and mRNA was then extracted. Increases in the number of the POMC neurons and the level of α-MSH were observed (FIGS. 11B to 11E).

[3] = Stability in 100% fetal bovine serum, residual potency via IP3 production in GALR2-expressing cells; conditions: 37° C.; for stability in serum (100% FBS): 0-72 h, IP3 production in GALR2-expressing cells
Experimental: The stability of the spexin-based mutant peptides was investigated. To this end, first, each modified mutant peptide at an initial concentration 10 μM was allowed to react in 100% fetal bovine serum (FBS) at 37° C. for 0, 3, 6, 12, 24, 48, and 72 h. Thereafter, the potencies of the mutant peptide toward GALR2 were determined via inositol 1,4,5-triphosphate (IP3) production in GALR2-expressing cells. For the IP3 assay, cells were seeded in 12-well plates at a density of 2.5×10^5 cells/well and then the next day, cells were treated with a mixture of 1 μg of GALR2-encoding plasmid DNA and Lipofectamine 2000 (Invitrogen). On day following treatment, cells were incubated in M199 media containing 1% FBS, 1% L-glutamine, 1% antibiotic, and myo-^3H inositol 1 μCi/well for 20 h to radioactively label inositol phosphate. After this stage was finished, cells were allowed to react in buffer A (140 mM NaCl, 20 mM Hepes, 4 mM KCl, 8 mM D-glucose, 1 mM MgCl2, 1 mM CaCl2), 1 mg/ml free fatty acid bovine serum albumin, and 10 mM LiCl at pH 7.2) for 30 min. After the mutant peptide was allowed to react in 100% FBS, cells were treated with the mutant peptide for 40 min at 37° C. Media was removed, and reactions were terminated by addition of 1 ml of 10 mM cold formic acid to each well. The plates were allowed to stand at 4° C. for 30 min. Then, the resulting extracts were transferred to 6-mL plastic tubes containing 500 μl AG1-8X anion exchange columns. The tubes were gently mixed with a vortexer, and the supernatants were removed from the labeled mixture. Two washes with 1 ml of triple-distilled water were performed followed by two additional washes with 60 mM ammonium formate/5 mM sodium tetraborate. The radioactively labeled mixture was eluted from the column with 1 ml of 1 M ammonium formate/0.1 M formic acid (1 mL), and 800 μl from the elution were taken from each tube and transferred into scintillation vials. Then, 2 ml of scintillation cocktail solution (Ultima Gold™, Perkin Elmer, Waltham Mass., USA) was added to each sample. The radioactivity of the mixture solution of the radioactively labeled mixture and the scintillation cocktail solution was measured using a TRI carb 2100TR liquid scintillation analyzer (Packard).

[4] = molecular target: T2, GALR3 (Homo sapiens, UniProt O60755); test: SRE-luc assay in HEK293-Gqi cells expressing GALR3; type: cell-based; conditions: compared with spexin
T2 construct: expressed in transfected cells
T2 sequence (O60755 1-368): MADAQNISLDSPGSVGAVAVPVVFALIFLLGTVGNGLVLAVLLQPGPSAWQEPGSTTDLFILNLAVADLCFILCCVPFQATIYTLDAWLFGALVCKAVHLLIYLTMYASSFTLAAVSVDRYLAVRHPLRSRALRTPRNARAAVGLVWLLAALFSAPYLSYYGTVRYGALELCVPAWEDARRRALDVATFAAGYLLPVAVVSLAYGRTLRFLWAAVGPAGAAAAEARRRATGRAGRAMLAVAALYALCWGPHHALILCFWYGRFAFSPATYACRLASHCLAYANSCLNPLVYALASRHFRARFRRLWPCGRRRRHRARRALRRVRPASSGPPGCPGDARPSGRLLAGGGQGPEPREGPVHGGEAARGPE
Source text: as §1, §2

Compound	potency toward GALR2 [1]	potency toward GALR3 [4]	other results
CC(C)C[C@H](NC(=O)[C@H](C)NC(=O)[C@H](C)NC(=O)[C@H](CC(N)=O)NC(=O)[C@@H](C)NC(=O)[C@@H](NC(=O)[C@H](Cc1c[nH]c2ccccc12)NC(=O)[C@H](CC(N)=O)NC(=O)OCC1c2ccccc2-c2ccccc21)[C@@H](C)O)C(=O)N[C@@H](Cc1ccc(O)cc1)C(=O)N[C@@H](CC(C)C)C(=O)N[C@@H](Cc1ccccc1)C(=O)NCC(=O)N1CCC[C@H]1C(=O)N[C@H](CCC(N)=O)C(N)=O [Fmoc-se] (Fmoc-NWT[dA]NAALYLFGP[dQ]-NH2)			specificity for GALR2 ([1]; GALR2 versus GALR3): specificity for GALR2; AKT phosphorylation [2]: only the ERK pathway was phosphorylated; ERK phosphorylation [2]: phosphorylated; stability in serum (100% FBS) [3]: increased stability
[dN^1]: spexin-based mutant peptide, Asn1 replaced with D-amino acid, SEQ ID NO: 9	slightly increased the potency	slightly increased the potency	
Fmoc: spexin modified with Fmoc at position 1, SEQ ID NO: 45	no influence	no influence	
[Pro^13]: spexin-based mutant peptide, proline at position 13, SEQ ID NO: 39 (NWTPQAMLYLKGPQ; [P13]-SPX)	maintained its potency toward GALR2 without a substantial difference	decreased potency toward GALR3	
insulin [reference compound]			AKT phosphorylation [2]: phosphorylated; ERK phosphorylation [2]: phosphorylated
[Asn^5]: spexin-based single mutant peptide, asparagine at position 5, SEQ ID NO: 23 (NWTPNAMLYLKGAQ; [N5]-SPX)	maintained its potency toward GALR2 without a substantial difference	decreased potency toward GALR3	
[Gly^8]: spexin-based mutant peptide, leucine at position 8 replaced with glycine, SEQ ID NO: 26 (NWTPQAMGYLKGAQ; [G8]-SPX)	decreased potencies	decreased potencies	
pQ: spexin with Asn1 replaced with pyroglutamate, SEQ ID NO: 10	no influence	no influence	
NWTPNAALYLFGPQ-NH2 (C-terminus assumed) [Qu]			stability in serum (100% FBS) [3]: rapidly degraded compared to the wild-type spexin
[Gly′]: spexin-based mutant peptide, Asn1 replaced with glycine, SEQ ID NO: 12 (GWTPQAMLYLKGAQ; [G1]-SPX)	maintained their potencies toward both receptors without differences from those of spexin	maintained their potencies toward both receptors without differences from those of spexin	
alanine	maintained its potency toward GALR2 without a substantial difference	decreased potency toward GALR3	
[Leu^11]: spexin-based mutant peptide, leucine at position 11, SEQ ID NO: 32 (NWTPQAMLYLLGAQ; [L11]-SPX)		decreased potency toward GALR3	
[Leu^4]: spexin-based mutant peptide, leucine at position 4, SEQ ID NO: 20 (NWTLQAMLYLKGAQ; [L4]-SPX)	maintained their potencies toward both receptors without differences from those of spexin	maintained their potencies toward both receptors without differences from those of spexin	
CSCC[C@H](NC(=O)[C@H](C)NC(=O)[C@H](CCC(N)=O)NC(=O)[C@@H]1CCCN1C(=O)[C@@H](NC(=O)[C@H](Cc1c[nH]c2ccccc12)NC(=O)[C@@H](N)CC(N)=O)[C@@H](C)O)C(=O)N[C@@H](CC(C)C)C(=O)N[C@@H](Cc1ccc(O)cc1)C(=O)N[C@@H](CC(C)C)C(=O)N[C@@H](CCCCN)C(=O)NCC(=O)N[C@@H](C)C(=O)N[C@@H](CCC(N)=O)C(N)=O [spexin, reference compound]			potency toward GALR2 (IP3 production) remaining after reaction in serum ([3]; 100% FBS, initial 10 μM, within 12 h): ≤ 80%
[Phe^11]: spexin-based mutant peptide, phenylalanine at position 11, SEQ ID NO: 31 (NWTPQAMLYLFGAQ; [F11]-SPX)	maintained its potency toward GALR2 without a substantial difference	decreased potency toward GALR3	
NC(=O)NCCC[C@H](N)C(=O)O [Cit]	no influence	no influence	
